Assay: soluble on expression in E. coli; label from the status in PepcDB or PDB records

Sequence | soluble on expression in E. coli
MNKIRYPAVAGLFYPSHPDELIDMIEQCYLHKFGPKSMPVHGTYEKPIGLLCPHAGYVYSGPIQAHSYYELSKRVDALEETTVVILGPNHTGLGSGVSVMDGIWRTPLGDVKCDEEFVEELWRKCEIVDLDETAHLNEHSIEVQLPFLKHLELLNIAKFKIVPICMMFQDYETAVEVGYFIAKIAKELNRRIVVIASSDLTHYEPQEIASKKDAIVIKDILEMNEKELYEDVVNYNISMCGYGPVIAMLKAMKTLGAEKAKLLAYATSGDITGDYSAVVGYASAIVELEHHHHHH | soluble
MSLSETSEHPVDGDELLVRTVLSNQALKRIFTHRTDSMTECYQVEKTFLQSEQSLLIGHQLHPTPKSRQGIDEDEELLFTPERKGSFQLHYFRAACELVDEKSALADSASELIKHDLLHDPNVQDSFKASYCQADDYVLLPVHPLQARKLLGKKEIADLIQAGKLSYLGPQGRAFYPTSSLRTVYHPEAEYMYKFSIPVKITNSLRVNKRKELARGVEVSELLKNGLYDQLKAEHPAFNIVQDPAYITLSLDSEESGLETVIRENPFRQGGEERTTLLAALCQDSIQGNSHLTNLMVELAKQKKISVTEASKWWFSRYLNVSLRPLYWLYATHGIALEAHQQNSIIKLDAEGLPSLFYYRDNQGYYFMQSKAETLKQFVPTLNEQSDTICSDAVAEERFRYYVFFNHLFGLVNAFGTNRLIDEEQLLHILREELTLLRQQFGDPTNLVNSLLHEEMLPCKANLLTRIHDMDELEGSLATQSVYVPVPNPLVVMAGELHEGHHHHHH | soluble
MAQAKHKQRKRLKSSCKRHPLYVDFSDVGWNDWIVAPPGYHAFYCHGECPFPLADHLNSTNHAIVQTLVNSVNSKIPKACCVPTELSAISMLYLDENEKVVLKNYQDMVVEGCGCR | soluble
DSLKAEVNTLFARFDEQPLAAASIAQVHTAALFDGREVIVKVTRPNIRTQILQDFEIISWLGQSLESRLEAARALHLSEIIQDYRQIILNELDLTLEADNTRRMRHYFTGSSMMYVPEVY | not soluble
MRSVLQSEVSECGLASLAMVANAHGKHLTLSQLRQRFPSSLKGAKLTHLVHIAQQLGFSTRPLRLDMEDLGKLKLPCILHWDLNHFVVLAKVGTTKVTIYDPAIGKRKLSLNEVSKYFTGIALELTTTTE | not soluble
MSLLDFEKPLFEIRNKIESLKESQDKNDVDLQEEIDMLEASLERETKKIYTNLKPWDRVQIARLQERPTTLDYIPYIFDSFMELHGDRNFRDDPAMIGGIGFLNGRAVTVIGQQRGKDTKDNIYRNFGMAHPEGYRKALRLMKQAEKFNRPIFTFIDTKGAYPGKAAEERGQSESIATNLIEMASLKVPVIAIVIGEGGSGGALGIGIANKVLMLENSTYSVISPEGAAALLWKDSNLAKIAAETMKITAHDIKQLGIIDDVISEPLGGAHKDVEQQALAIKSAFVAQLDSLESLSRDEIANDRFEKFRNIGSYIEEGHHHHHH | not soluble
HRPLNPAMVAFSNDPLLNDLALNSSYSLLFAVNNMKSEKSAEQFYGKMDNQKMLDLVRASSTKIDFDPTLLPTMNSNPATYQGKRKNLVILLQESLGAQFVGSLGGLPLTPNLDELMQEGWQFTQMYATGTRSVRGIEAVTTGFPPSPSRAVVKLSKSQTGFFTIADLLKEQGYHTQFIYGGEANFDNMKTFFFGNGFDQIVEEKNYTNPGFVGSWGVSDEDLYNKADEEFERLSKGDKPFFSLVFTSSNHSPYEYPEGKIEQYDSEHMTRNNAVKYSDYALGTFFDKAKKSSYWDDTIFIVIADHDARVFGANLVPVKHFHIPALIIGKDIQPRKDDRIANNIDMPPTLLSLIGVDAKTPMIGRDLTKPLAREDERAMMQYDKNFGYLTRDNLVVLSPGEKVSTMEYDFESQTMKPLEVDESVIDRAKANALFASKAYQNNWYSSKRTN | soluble
MTDLQVFEMNPQLNFPISDKTIYQMGFNSSAAQPSAANYVTESNSLTNHLQILDLLNPQTSSGSDDKKRQFFADLMTPHYEKQAEIEKKIDDLSEVVHQFIQSQQSLNKLILEKCLGRIPSPRMTSPHQPEDNSIDDMDPPVQEEIEEKIENDTFGQNEVTVNQQPINNPMPVYPVPISHEPANLHSPIRNRSISPEKMDTTGNSGAGMSVRDFLKNTMTVQKADEKILEEELERERDEAAQTVRYNKFRVRNRPKKYKRSAVTFTSSLEAATSSSSSTIPHQDQGPTFSTHSTIGNSSDTSQLMEQLDQSQNDSIDIEENVYQPIVVPCVQRAPELDLTLMQPVFSTASSYVLNSSALDPTTHQAQSSLSALTDSKFQTDPNNLWKAVDGVSQLLVDAPSLLESDLRSFTDHSHHSSFLPFVANHEPLHRSAFLPPQYHKDRRIHQQMDSHLSDTLRNL | not soluble
MSLEKFVVQDIQIDGLQRVALGAALLKMPVRVGDSVDSQDVANIIKALYSSGNFEDVKVLRDGNTLMVQVKERPTIASVSFSGNKAIKEEQLKQNLEASSIRVGEALDRTTLSNIEKGLEDFYYSVGKYNATVKAVVTPLPRNRADLKFVFTEGVSAKIQQINFIGNQVFSDEELLSRFNLNVDVAWWNFLADDKYKKQVLAGDIEALRTYYLDRGYLKFQVDSTQVAISPDKKGVYITLNLNEGEPYTVSKVQFRGELMGKEAEFTSLIPFEIGETYNGSAVTRLEESVKKVLGESGYAYPQVRTIPEFDDEKQQVSLVVHVEAGKRVYVRDIRFVGNNSTRDEVLRREMRQMEGSWLNSKDIETGKTRLNRLGFFETVEVQTVRVPGSEDQVDLVYSVKEANSGNVNFGVGYGTESGVSFQVGLQQDNFLGSGNRVGVNAMINDYQKNLTLEYRDPYWNLDGVSLGGKVFYNQFEASEAGIVDYTNESYGTSLTWGFPFDELNRFEFGIGYTHNKIGNLTPYLQVENFLAAQASNIDSGGNLLTDDFDINLSWTRNNLNNSYFPTAGNHQRAFYKMTVPGSDAQYFKLQYDVRQYFPLTKKHEFTLLLRGRLGYGNGYGQTDGKDNLFPFYENFYAGGFTSLRGFGSNSAGPKAVYRDYSGSNNGSDTATDDSVGGNAIALASVELIVPTPFASEEARNQIRTSIFYDMASVWDTEFDYRGKADYGNQYYYDYSDPTNYRSSYGVALQWVSPMGPLVFSLAKPIKKYEGDDEEFFTFTIGRTFEGHHHHHH | not soluble
MAHHHHHHMWLNDFFAMELDGRAAMDANWGVLLAAFFRGPKKYIRDAGVLGEMQASDRYKMMERAVRDEMDMEEDVSRLYNNGMYELLRWLVATAEVTASAHEVTKSFLDAAAEEARNPTTTSAPRYLEGCYESVYNARWNHVVEVPGGEGTGLEVREGEPPQSWTYRAVGRTLEKDDGVQQFGATRPVLMVLTSDKGWPYSRNTIQDLPKDVFVNCEVDRVWQIVKGDLTAWFSTDGGTDFRPERRVLIGTPGIGKLVAAGSYLLYQLLHYDLEKIQVVVHCFGGGDAYVSDKTTRAATRYGDEDMCISELRSLRGHGRNVYIIYDVAKEGTPPPRHFAPTSGWGMIAVSFPKVTNYDEWAKQLQAARIIVNCPD | not soluble
MQLVREKEFVNQYHYDARNLEWEKENGTPETNFEVTFQLIDKDEQQKETVIVSVLQFVIVKEEFVISGVISQMVRILDRLVDKPSEFTQEEVESLAAPLLDMVKRLTYEVTEIALDRPGIHLEFKN | not soluble
MSLKISHIDLGEHPILLAPMEDVTDPAFRLMCKKFGADMVYTEFVSSDALIRAVSKTAQKLSISDEERPVAIQIYGKDTETMVEAAKIVEQAQPDILDINFGCPVKRVAGKGAGAGMLQNIPKMLEITRAVVDAVKIPVTVKTRLGWDANNKIIVDLAEQLQDCGIAALTIHGRTRAQMYTGEADWTLIGEVKNNQRMHIPIIGNGDVTTPQRCKECFDRYGVDAVMIGRASFGRPWIFKEVKHYLETGEELPPLSFEWCMEVLRQEVIDSVNLLDERRGILHVRRHLAASPLFKGIPNFKETRIAMLRAETKEELFRIFETIPEKVNSLLDEGHHHHHH | soluble
MAHHHHHHMIRINENSKMSSNLSNENEVTYEKNNNIKNKLEEKYKNFLKLKNMNSHMGASQNMNVNNNYTMNELEEFEKINNNYNNNNNNINNNINNYYDYMNIKVSQSVQHNKRLQDFYNNKNSFQHYIKKLKTCRFDADDIRNLLEKRLAYERDNTLIKNIQEEENKKGIGINGNFGSESNSSSSNYDNNYLLYRKINRLNKTNTNKSKNRSRKRKRINSKIDKKYIIKCRACKFINPNGFKIEDYYTCQNCGYNDFSVIRSTSPNNAD | not soluble
MSLVSIKDIARYCGVSAMTVSRALNNSDDIAEATKEKILKVCEELKYKPNSAAKSLITKKTNMIGLIIPDIANQYYANISKGVSSYIEKHGYGLILCNSNRKKPNEVKYLDFLSEGRVDGIIILPVKPRKEDYEDISRQIPMVMADNFAKGLEVNFVGIDNYAGAIKIITHMVNQGYKKIGVILGDKDSTASSERLNGYKKVLEDKGISYNEDIVIHSNSTFEDGFNIASILIEKGVDSIFAINDTVAMGVIKYCYEKGIKLPEELGLAGYDNIEQAAMLTIPLTTVDQDNKKIGTIAAKMLVDAIKGNAKKTEKIILEPTLVIRKSCGEEGHHHHHH | soluble
GPGSMFHNSYQAGFLSILYSIGSKPLQIWDSQVRNGHVKRITDEDIQSSVLEIMGSNVSTCYIVCPANPKQTLGIKLPFLVMIIKNMKKYFSFEVTILDDKNMRRRFRASNYQSTTKVKPFICTMPMRLDEGWNQIQFNLSDFTRRAYGTNYVETLRVQVHANCRIRRLYFSDRLYAEEELPPEFKLFLPIAQQPPAAAAAEQRDIEAADVPQAASAAQ | soluble
MSLVEMKFLTDRMLGRLTRWLRISGYDTVSVSELEFDEEEDEFMLRNLRDRILLTKDRELYRKSVKEGRKAILIRSDSLEGQMRELMERGVKFQIVMDRCSLCNTPLRKPSREEAMEVIEREKLSEDMLEFELWYCEKCRKLYWMGGHWKNMTRFLRKFESEGHHHHHH | soluble
MNERHVLVVFPHPDDEAFGVSGTIAEHAQNGTPVTYACLTLGEMGRNMGVPPFANRETLPHIRKQELEEACRILGIHDLRLLGYRDKTVEFEDEEELADQIAAIVAETNPSLVITFYPGYSVHPDHDACGAAVIRALKRWPKEERPTVHCVAFAKNCEQDLGQPDVVRDVSSVIDTKLAAIRAHRSQTEGLMQAASKRGDALAWLKTERFWTYRWDD | soluble
MGMEYSFGFTKIDEAQKQSMVDGVFHSVAENYDKMNDILSLGLHRMWKNSMVAWLSPPAVFHWKVLDVAGGTGDIAFRILNASRQKAHATVLDINGSMLSVGKKRAEKNGLAPLIDFVEANAEHLPFEDQSFDAYTIAFGIRNVPHIDQALREAFRVLKPGGRFLCLEFSNVEMPLLDKIYDLWSFHAIPKLGQLIANDGDAYRYLVESIRKFPKQDDFAHMINHVGFSRVSYRNLTGAIAALHSAWKILEHHHHHH | not soluble
LEQVNDKRISPLRPMRLRLIPLKCKTQPKKGKLSLQSVQKIYVNPRSNGTFKRVPLAGDLFKSRMRQPERDMQKNKLHDSDWQSNM | soluble
SMSRPDQAARRRAIAAELHVSPTFDARDEAERRIGFVADYLRTAGLRACVLGISGGIDSSTAGRLAQLAVERLRASGYDARFVAMRLPYGAQHDEADARRALAFVRADETLTVDVKPAADAMLAALAAGGLAYLDHAQQDFVLGNIKARERMIAQYAVAGARNGVVIGTDHAAESVMGFFTKFGDGGADVLPLAGLTKRRVRALARMLGADEPLVLKTPTADLETLRPQRPDEHAYGITYEQIDDFLEGKPMDDAVAETVLRFYDATRHKRALPYTMFDWPGHPA | soluble

From the DeepSol protein solubility set
